Where only a bound is given, the exact number is not on record here.

Test in all cases: flow cytometry on cells; biotinylated ligand at various concentrations, 30 min at 4 °C in PBS + 0.1% BSA, on Drosophila S2 cells displaying the partner (C-terminal FLAG, rat Neurexin-1 transmembrane helix); Cy5-streptavidin; gated on anti-FLAG positive cells; MFI fit to a single-site model; apparent KD
Conditions in all cases: one partner purified

Test [1] addresses T1, hRobo3 FN1-3 F594A/W602A, biotinylated (human, UniProt Q96MS0 549-870, F594A | W602A, biotin on the Avi-tag (BirA)).
T1 construct: human Robo3, FN domains 1-3, P549-L870; source: High Five cells (baculovirus), purified, biotinylated with BirA (general methods)
T1 sequence (looked up): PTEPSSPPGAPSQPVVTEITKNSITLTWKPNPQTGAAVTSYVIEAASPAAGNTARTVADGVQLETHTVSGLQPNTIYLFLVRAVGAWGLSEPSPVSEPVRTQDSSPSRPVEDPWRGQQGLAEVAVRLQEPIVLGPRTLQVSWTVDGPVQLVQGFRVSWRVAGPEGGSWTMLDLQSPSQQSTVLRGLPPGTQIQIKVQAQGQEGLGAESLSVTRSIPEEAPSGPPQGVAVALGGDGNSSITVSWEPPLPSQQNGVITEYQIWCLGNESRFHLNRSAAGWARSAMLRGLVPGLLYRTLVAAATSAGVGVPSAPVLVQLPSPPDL

Test [2] addresses T2, hRobo3 FN1-3 W635A, biotinylated (human, UniProt Q96MS0 549-870, W635A, biotin on the Avi-tag (BirA)).
T2 construct: human Robo3, FN domains 1-3, P549-L870; source: High Five cells (baculovirus), purified, biotinylated with BirA (general methods)
T2 sequence (looked up): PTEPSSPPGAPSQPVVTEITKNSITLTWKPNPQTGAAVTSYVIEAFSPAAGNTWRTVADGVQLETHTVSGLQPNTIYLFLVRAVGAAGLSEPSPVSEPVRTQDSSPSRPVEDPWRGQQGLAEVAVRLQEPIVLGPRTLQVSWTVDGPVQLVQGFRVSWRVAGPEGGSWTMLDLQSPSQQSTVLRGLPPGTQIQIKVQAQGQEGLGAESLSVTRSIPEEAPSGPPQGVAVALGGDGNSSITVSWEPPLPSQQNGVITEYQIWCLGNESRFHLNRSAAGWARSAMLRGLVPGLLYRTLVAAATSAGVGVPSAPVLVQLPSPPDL

The target of test [3] is T3, hRobo3 FN1-3 T604A, biotinylated (human, UniProt Q96MS0 549-870, T604A, biotin on the Avi-tag (BirA)).
T3 construct: human Robo3, FN domains 1-3, P549-L870; source: High Five cells (baculovirus), purified, biotinylated with BirA (general methods)
T3 sequence (looked up): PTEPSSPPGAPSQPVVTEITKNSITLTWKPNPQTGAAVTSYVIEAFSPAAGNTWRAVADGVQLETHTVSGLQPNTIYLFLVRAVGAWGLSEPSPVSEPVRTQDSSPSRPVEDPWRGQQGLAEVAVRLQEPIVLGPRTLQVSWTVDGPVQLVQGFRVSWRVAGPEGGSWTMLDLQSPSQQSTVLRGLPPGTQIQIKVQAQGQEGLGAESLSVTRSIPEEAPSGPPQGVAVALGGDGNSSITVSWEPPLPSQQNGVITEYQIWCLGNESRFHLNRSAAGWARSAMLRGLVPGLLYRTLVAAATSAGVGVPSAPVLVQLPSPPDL

B1: hNELL2 EGF1-6 displayed on S2 cells (domain or fragment)
chain: not shown
notes: human NELL2, EGF domains 1-6, G397-T637; also called NELL2EGF1-6 WT (Actin 5C, C-terminal FLAG); FLAG-tagged NELL2 EGF1-6; source: Drosophila S2 cells, transiently transfected, on the cell surface; not shown: FLAG, C-terminal, kept; transmembrane helix of rat Neurexin-1, C-terminal, kept
For B1, the results for the Kd in test [1], in test [2] and in test [3] were ≥ 100 µM, 2.9 µM and 7.9 µM, respectively.

The values above are taken from article PMC7083938, “NELL2-Robo3 complex structure reveals mechanisms of receptor activation for axon guidance” (Nature Communications, 2020).
